Experimental data taken from patent publication US20250236878A1 (priority 2019, published 2025).

Legend:
[1] = system: Pseudomonas syringae pv. actinidiae (PSA-V); format: in vivo; settings: at 6, 16 and 23 DAI; P<0.1
[2] = system: HLB-infected citrus trees; experiment: Citrus trials of Examples 20-24: fruit yield, size, count and drop, average over orange and grapefruit trials; format: in vivo, Citrus sinesis; Citrus paradisi; settings: trunk injection (Table 64)
Description: All fruit with a diameter greater than or equal to 1.6 inches (40 mm) were hand-picked and collected for each tree. The total “Fruit Weight” (in kilograms) per individual tree was measured and recorded. Trees with total fruit weights less than or greater than 2 standard deviations (2STDEV) from the trial mean were considered to be outliers and removed from the dataset. Fruit size was assessed as the “Average Weight per Fruit” in grams (weight of 20 random fruit per tree, divided by 20) and “Average Fruit Diameter” in millimeters, as described in Example 1. The “Average Fruit Count” per tree was assessed as the total “Fruit Weight” divided by “Average Weight per Fruit”. “Fruit Drop” was assessed as for Example 1. Fruit quality was assessed as for Example 2, with the exception that one set of fruit consisted for 15 total fruit, each corresponding to a sampling of 3 fruit from 5 trees of the same experimental treatment block. Each set of 15 fruit were weighed (gram; g) and then juiced together. Average yield, % fruit drop, fruit size, and juice quality for each of the tested compositions are described in Examples 20-24.

[3] = system: Citrus trees infected with Candidatus Liberibacter asiaticus; format: in vivo, Citrus x paradisi; settings: […]; trunk injection
[4] = system: Citrus trees infected with CLas; format: in vivo, Citrus x paradisi; Citrus sinesis; settings: average of 'Ruby Red' and 'Valencia'
Description: Treatments as previously described in Example 3; β-1,3-Endoglucanase from barley SEQ ID NO: 731 (Treatment 1) and Bt.4Q7Flg22 from Bacillus thurigiensis SEQ ID NO: 226 (Treatment 5) increased fruit yield (kg/tree) as described in Table 56. Fruit quality, and juice quality of ‘Valencia’ oranges are described in Table 57.
For direct comparison of the treatment results between grapefruit (‘Ruby Red’) and orange (‘Valencia’) are referenced in Table 56 above.

[5] = system: Citrus trees infected with CLas; set-up: species or system Citrus sinesis; settings: in vivo
[6] = system: Citrus trees infected with CLas; experiment: Recovery composition trunk injection: 'Valencia' orange fruit yield (Examples 3, 19); format: in vivo, Citrus sinesis; settings: 'Valencia' orange; trunk injection

B1: Serine Protease 2: serine protease 2 cloned from Bacillus subtilis, four substitutions relative to SEQ ID NO: 722 (protein, listed as Bacillus subtilis)
chain: SSKTSADLEKAEVFGDIDMTTSKKTTVIVELKEKSLAEAKEAGESQSKSKLKTARTQAKNKAIKAVKNGKVNREYEQVFSGFSMKLPANEIPKLLAVKDVKAVYPNVTYKTDNMKDKDVTISEDAVSPQMDDSAPYIGANDAWDLGYTGKGIKVAIIDTGVEYNHPDLKKNFGQYKGYDFVDNDYDPKETPTGDPRGEATDHGTHVAGTVAANGTIKGVAPDATLLAYRVLGPGGSGTTENVIAGVERAVQDGADVMNLSLGNSLNNPDWATSTALDWAMSEGVVAVTSNGNSGPNGWTVGSPGTSREAISVGATQLPLDEYAVTFGSYSSAKVMGYNKEDDVKALNNKEVELVEAGIGEAKDFEGKDLTGKVAVVKRGSIAFVDKADNAKKAGAIGMVVYNNLSGEIEANVPGMSVPTIKLSLEDGEKLVSALKAGETKTTFKLTVSKALGEQVADFSSRGPVMDTWMIKPDISAPGVNIVSTIPTHDPDHPYGYGSKQGTSMASPHIAGAVAVIKQAKPKWSVEQIKAAIMNTAVTLKDSDGEVYPHNAQGAGSARIMNAIKADSLVSPGSCSYGTFLKENGNETKNETFTIENQSSIRKSYTLEYSFNGSGISTSGTSRVVIPAHQTGKATARVKVNTKKTKAGTYEGTVIVREGGKTVAKVPTLLIVKEPDYPRVTSVSVSEGSVQGTYQIETYLPAGAEELAFLVYDSNLDFAGQAGIYKNQDKGYQYFDWDGTINGGTKLPAGEYYLLAYAANKGKSSQVLTEEPFTVE
Q: For B1, which “PSA-V leaf spot symptoms in comparison to the untreated control” value [1] is on record?
A: significantly reduced

B2: Amylase from Bacillus subtilis 168: starch-degrading Amylase, trunk-injected at 92 U per tree (protein, UniProt P00691 42-659, looked up)
Alpha-amylase: LTAPSIKSGTILHAWNWSFNTLKHNMKDIHDAGYTAIQTSPINQVKEGNQGDKSMSNWYWLYQPTSYQIGNRYLGTEQEFKEMCAAAEEYGIKVIVDAVINHTTSDYAAISNEVKSIPNWTHGNTQIKNWSDRWDVTQNSLLGLYDWNTQNTQVQSYLKRFLDRALNDGADGFRFDAAKHIELPDDGSYGSQFWPNITNTSAEFQYGEILQDSASRDAAYANYMDVTASNYGHSIRSALKNRNLGVSNISHYASDVSADKLVTWVESHDTYANDDEESTWMSDDDIRLGWAVIASRSGSTPLFFSRPEGGGNGVRFPGKSQIGDRGSALFEDQAITAVNRFHNVMAGQPEELSNPNGNNQIFMNQRGSHGVVLANAGSSSVSINTATKLPDGRYDNKAGAGSFQVNDGKLTGTINARSVAVLYPDDIAKAPHVFLENYKTGVTHSFNDQLTITLRADANTTKAVYQINNGPETAFKDGDQFTIGKGDPFGKTYTIMLKGTNSDGVTRTEKYSFVKRDPASAKTIGYQNPNHWSQVNAYIYKHDGSRVIELTGSWPGKPMTKNADGIYTLTLPADTDTTNAKVIFNNGSAQVPGQNQPGFDYVLNGLYNDSGLSGSLPH
Q: How did the “average increase in fruit weight relative to control” value [2] turn out when B2 was run?
A: 5%

B3: B-1,3-Endoglucanase from Barley (SEQ ID NO: 731) (protein)
chain: GVCYGVIGNNLPSRSDVVQLYRSKGINGMRIYFADGQALSALRNSGIGLILDIGNDQLANIAASTSNAASWVQNNVRPYYPAVNIKYIAAGNEVQGGATQSILPAMRNLNAALSAAGLGAIKVSTSIRFDEVANSFPPSAGVFKNAYMTDVARLLASTGAPLLANVYPYFAYRDNPGSISLNYATFQPGTTVRDQNNGLTYTSLFDAMVDAVYAALEKAGAPAVKVVVSESGWPSAGGFAASAGNARTYNQGLINHVGGGTPKKREALETYIFAMFNENQKTGDATERSFGLFNPDKSPAYNIQF
modifications: Hordeum vulgare
Q: B3 was tested. Which “Average Yield (Relative to Untreated)” value [3] did it give?
A: (112%)

Q: And the “Average Yield (kg per tree)” value [3]?
A: 38.7 kg per tree

Q: What about the “Average Yield (Relative to Untreated), Average of 2 sites” value [4] of the same molecule?
A: (124%)

Q: What about the “Average Fruit Diameter (Relative to Untreated)” value [5] of the same molecule?
A: (104%)

Q: What about the “Average Fruit Diameter (mm)” value [5] of the same molecule?
A: 62.76 mm

Q: What about the “Brix:CA Ratio” value [5] of the same molecule?
A: 12.01

Q: What about the “Brix:CA Ratio (Relative to Untreated)” value [5] of the same molecule?
A: (+0.76)

Q: What about the “Average Yield (Relative to Untreated)” value [6] of the same molecule?
A: (136%)

Q: And the “Average Yield (kg per tree)” value [6]?
A: 54.8 kg per tree
